Drawing on patent US20170121382A1 (published 2017), this text covers Kd for 2 molecules.

Like-named read-outs stand apart in the source and are kept apart here.

Common to all, as to assay: SPR
Assay [1] deals with T1, human recombinant DMP1 (human, UniProt Q13316 17-513).
T1 chain: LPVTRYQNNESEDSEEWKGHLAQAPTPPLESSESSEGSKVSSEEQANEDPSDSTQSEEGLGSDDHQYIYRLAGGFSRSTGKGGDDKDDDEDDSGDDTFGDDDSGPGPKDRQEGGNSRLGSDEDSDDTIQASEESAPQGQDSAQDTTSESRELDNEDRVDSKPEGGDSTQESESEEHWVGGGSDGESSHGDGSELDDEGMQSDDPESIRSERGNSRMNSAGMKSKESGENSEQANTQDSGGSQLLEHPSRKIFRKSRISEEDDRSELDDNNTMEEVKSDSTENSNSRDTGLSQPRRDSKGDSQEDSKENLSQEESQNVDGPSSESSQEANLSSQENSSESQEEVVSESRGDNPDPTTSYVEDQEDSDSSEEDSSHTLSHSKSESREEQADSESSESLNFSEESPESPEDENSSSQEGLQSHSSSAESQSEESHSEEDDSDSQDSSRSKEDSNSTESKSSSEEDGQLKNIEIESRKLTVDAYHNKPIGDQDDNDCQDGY

Assay [2] addresses T1, human recombinant DMP1.
The target of a further assay is ASARM peptide.

B1: soluble human recombinant PHEX (enzyme)
chain: SLQAKQEYCLKPECIEAAAAILSKVNLSVDPCDNFFRFACDGWISNNPIPEDMPSYGVYPWLRHNVDLKLKELLEKSISRRRDTEAIQKAKILYSSCMNEKAIEKADAKPLLHILRHSPFRWPVLESNIGPEGVWSERKFSLLQTLATFRGQYSNSVFIRLYVSPDDKASNEHILKLDQATLSLAVREDYLDNSTEAKSYRDALYKFMVDTAVLLGANSSRAEHDMKSVLRLEIKIAEIMIPHENRTSEAMYNKMNISELSAMIPQFDWLGYIKKVIDTRLYPHLKDISPSENVVVRVPQYFKDLFRILGSERKKTIANYLVWRMVYSRIPNLSRRFQYRWLEFSRVIQGTTTLLPQWDKCVNFIESALPYVVGKMFVDVYFQEDKKEMMEELVEGVRWAFIDMLEKENEWMDAGTKRKAKEKARAVLAKVGYPEFIMNDTHVNEDLKAIKFSEADYFGNVLQTRKYLAQSDFFWLRKAVPKTEWFTNPTTVNAFYSASTNQIRFPAGELQKPFFWGTEYPRSLSYGAIGVIVGHEFTHGFDNNGRKYDKNGNLDPWWSTESEEKFKEKTKCMINQYSNYYWKKAGLNVKGKRTLGENIADNGGLREAFRAYRKWINDRRQGLEEPLLPGITFTNNQLFFLSYAHVRCNSYRPEAAREQVQIGAHSPPQFRVNGAISNFEEFQKAFNCPPNSTMNRGMDSCRLW
Turning to B1, the Kd with human recombinant DMP1 [1] and in the assay with human recombinant DMP1 [2] was 248 nM throughout.

B2: PHEX (enzyme)
chain: SLQAKQEYCLKPECIEAAAAILSKVNLSVDPCDNFFRFACDGWISNNPIPEDMPSYGVYPWLRHNVDLKLKELLEKSISRRRDTEAIQKAKILYSSCMNEKAIEKADAKPLLHILRHSPFRWPVLESNIGPEGVWSERKFSLLQTLATFRGQYSNSVFIRLYVSPDDKASNEHILKLDQATLSLAVREDYLDNSTEAKSYRDALYKFMVDTAVLLGANSSRAEHDMKSVLRLEIKIAEIMIPHENRTSEAMYNKMNISELSAMIPQFDWLGYIKKVIDTRLYPHLKDISPSENVVVRVPQYFKDLFRILGSERKKTIANYLVWRMVYSRIPNLSRRFQYRWLEFSRVIQGTTTLLPQWDKCVNFIESALPYVVGKMFVDVYFQEDKKEMMEELVEGVRWAFIDMLEKENEWMDAGTKRKAKEKARAVLAKVGYPEFIMNDTHVNEDLKAIKFSEADYFGNVLQTRKYLAQSDFFWLRKAVPKTEWFTNPTTVNAFYSASTNQIRFPAGELQKPFFWGTEYPRSLSYGAIGVIVGHEFTHGFDNNGRKYDKNGNLDPWWSTESEEKFKEKTKCMINQYSNYYWKKAGLNVKGKRTLGENIADNGGLREAFRAYRKWINDRRQGLEEPLLPGITFTNNQLFFLSYAHVRCNSYRPEAAREQVQIGAHSPPQFRVNGAISNFEEFQKAFNCPPNSTMNRGMDSCRLW
On to B2, for which the Kd (commonly the constant that tells how readily two partners part at equilibrium) with ASARM peptide came out at 176 nM.
